{"source": "paper PMC3084267", "about": "“Antibody Engineering Using Phage Display with a Coiled-Coil Heterodimeric Fv Antibody Fragment” (PLoS ONE, 2011)", "binders": {"B1": {"name": "X76 scFv (humanization lead) (scFv, V domains shown)", "VH": "EVQLVQSGGGVVQPGGSLRLSCAASGYTFTNYGMNWIRQAPGKGLEWVGWINTYTGEPTYAADFKRRVTFSLDTSKSTAYLQLNSLRAEDTAVYYCAKYPHYYGSSHWYFDVWGQGTLVTVSS", "VL": "DIQMTQSPSSLSASVGDRVTITCSASQDISNYLNWYQQKPGKAPKVLIYFTSSLHSGVPSRFSGSGSGTDFTLTISSLQPEDFATYYCQQYSTVPWTFGQGTKVEIK", "notes": "as the VH of m4 (WT) with the stated framework changes (Kabat numbering); scFv linker; VL paired with the VH humanization library; likely as the VL of m4; Selected as ccFv on phage, converted to scFv; source: Pichia pastoris X33 (pPIC6 alpha), culture supernatant, purified (Ni-NTA)"}, "B2": {"name": "X97 scFv (VH-CDR3 mutations of X65 in the X76 framework) (scFv, V domains shown)", "VH": "B1 VH with H101Y, S105R", "VL": "B1 VL", "notes": "as the VH of m8 (X76 framework) with the VH-CDR3 changes of X65; scFv linker; VL as in m8; likely as the VL of m4; source: Pichia pastoris X33 (pPIC6 alpha), culture supernatant, purified (Ni-NTA)"}, "B3": {"name": "X78 scFv (humanization lead) (scFv, V domains shown)", "VH": "B1 VH with S17T, S21T, I37V, L83M", "VL": "B1 VL", "notes": "as for B1"}, "B4": {"name": "X96 scFv (VH-CDR3 mutations of X65 in the X72 framework) (scFv, V domains shown)", "VH": "B1 VH with I37V, V68F, L83M, H101Y, S105R", "VL": "B1 VL", "notes": "as the VH of m7 (X72 framework) with the VH-CDR3 changes of X65; scFv linker; VL as in m7; likely as the VL of m4; source: Pichia pastoris X33 (pPIC6 alpha), culture supernatant, purified (Ni-NTA)"}, "B5": {"name": "X64 scFv (VH-CDR3 variant S100aR) (scFv, V domains shown)", "VH": "B1 VH with Q6E, V11L, I37V, V68F, L83M, S105R", "VL": "B1 VL", "notes": "as the VH of m4 (WT framework) with the stated VH-CDR3 change; scFv linker; Selected as ccFv on phage, converted to scFv; source: Pichia pastoris X33 (pPIC6 alpha), culture supernatant, purified (Ni-NTA)"}, "B6": {"name": "X63 scFv (VH-CDR3 variant H97Y, S100aT) (scFv, V domains shown)", "VH": "B1 VH with Q6E, V11L, I37V, V68F, L83M, H101Y, S105T", "VL": "B1 VL", "notes": "as the VH of m4 (WT framework) with the stated VH-CDR3 changes; scFv linker; Selected as ccFv on phage, converted to scFv; source: Pichia pastoris X33 (pPIC6 alpha), culture supernatant, purified (Ni-NTA)"}, "B7": {"name": "X65 scFv (VH-CDR3 variant H97Y, S100aR) (scFv, V domains shown)", "VH": "B1 VH with Q6E, V11L, I37V, V68F, L83M, H101Y, S105R", "VL": "B1 VL", "notes": "as the VH of m4 (WT framework) with the stated VH-CDR3 changes; scFv linker; Converted to scFv; source: Pichia pastoris X33 (pPIC6 alpha), culture supernatant, purified (Ni-NTA)"}}, "key": {"[1]": {"biological_target": "T1, recombinant human VEGF (R&D Systems, 293-VE/CF) (Homo sapiens, UniProt P15692-4)", "T1 construct": "recombinant human VEGF, R&D Systems 293-VE/CF; also called VEGF antigen; source: bought: R&D Systems (293-VE/CF)", "T1 sequence (P15692 whole entry)": "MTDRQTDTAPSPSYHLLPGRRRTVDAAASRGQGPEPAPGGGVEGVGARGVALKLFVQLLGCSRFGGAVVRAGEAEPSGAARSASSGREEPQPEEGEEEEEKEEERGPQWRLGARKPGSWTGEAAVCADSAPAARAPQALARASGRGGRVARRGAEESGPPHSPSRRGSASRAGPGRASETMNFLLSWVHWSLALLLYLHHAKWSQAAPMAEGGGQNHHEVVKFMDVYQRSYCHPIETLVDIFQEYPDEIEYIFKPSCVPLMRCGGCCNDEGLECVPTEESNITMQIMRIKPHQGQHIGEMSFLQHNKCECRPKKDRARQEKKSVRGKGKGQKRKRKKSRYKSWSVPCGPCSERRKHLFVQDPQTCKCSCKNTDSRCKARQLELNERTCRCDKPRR", "test": "SPR; Biacore, 25°C; VEGF amine-coupled to a CM5 chip (about 300 RU); monomeric scFv (after Superdex 75) in PBS at 10, 20, 40, 80, 160 nM, 30 µl/min, 5 min association, 10 min dissociation; global fit to 1:1 Langmuir model", "conditions": "both partners purified"}, "[2]": {"biological_target": "T1, recombinant human VEGF (R&D Systems, …)", "test": "SPR; Biacore, 35°C; VEGF amine-coupled to a CM5 chip (about 300 RU); monomeric scFv (after Superdex 75) in PBS at 10 to 160 nM; global fit to 1:1 Langmuir model", "conditions": "both partners purified"}}, "note": "Where a chain is given by its changes, count along the chain named. In names and notes the source's numbering stands."}
{"binder": "B1", "values": [{"measurement": "Kd", "setting": "[1]", "result": 3.1, "unit": "nM"}]}
{"binder": "B2", "values": [{"measurement": "Kd", "setting": "[2]", "result": 0.12, "unit": "nM"}]}
{"binder": "B3", "values": [{"measurement": "Kd", "setting": "[1]", "result": 5.9, "unit": "nM"}]}
{"binder": "B4", "values": [{"measurement": "Kd", "setting": "[2]", "result": 0.11, "unit": "nM"}]}
{"binder": "B5", "values": [{"measurement": "Kd", "setting": "[1]", "result": 5.4, "unit": "nM"}]}
{"binder": "B6", "values": [{"measurement": "Kd", "setting": "[1]", "result": 2.2, "unit": "nM"}]}
{"binder": "B7", "values": [{"measurement": "Kd", "setting": "[1]", "result": 1.5, "unit": "nM"}]}
